{"source": "patent US20080182978A1", "about": "“ANTI-NGF ANTIBODIES AND METHODS USING SAME” (RINAT NEUROSCIENCE CORP, priority 2002, published 2008)", "molecules": {"B1": {"name": "E3: humanized, affinity matured anti-NGF antagonist antibody; variable regions SEQ ID NO:1 and 2; human IgG2a (A330P331 to S330S331), kappa (antibody, V domains shown)", "VH": "QVQLQESGPGLVKPSETLSLTCTVSGFSLIGYDLNWIRQPPGKGLEWIGIIWGDGTTDYNSAVKSRVTISKDTSKNQFSLKLSSVTAADTAVYYCARGGYWYATSYYFDYWGQGTLVTVS", "VL": "DIQMTQSPSSLSASVGDRVTITCRASQSISNNLNWYQQKPGKAPKLLIYYTSRFHSGVPSRFSGSGSGTDFTFTISSLQPEDIATYYCQQEHTLPYTFGQGTKLEIKRT", "modifications": "human IgG2a constant (A330S/P331S) and kappa constant missing"}}, "key": {"human NGF": {"target": "human NGF (Homo sapiens, UniProt P01138)", "sequence (P01138 122-241)": "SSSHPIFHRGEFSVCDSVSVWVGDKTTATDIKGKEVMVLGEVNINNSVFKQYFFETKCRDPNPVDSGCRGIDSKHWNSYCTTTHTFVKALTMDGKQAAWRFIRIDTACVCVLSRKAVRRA", "experiment": "Mouse E13.5 trigeminal neuron survival assay, human NGF", "type": "cell-based", "details": "0.4 ng/ml human NGF (saturating); 0.00128-20 nM", "experimental": "The ability of Fab E3 or full antibody E3 to block NGF activity was evaluated by measurement of the capacity of the antibody to inhibit NGF-dependent survival of mouse E13.5 trigeminal neurons in vitro. The trigeminal ganglion is comprised of cutaneous sensory neurons that innervate the facial region. The survival of mouse E13.5 trigeminal neurons is a sensitive assay to evaluate the NGF-blocking activity of anti-NGF antagonist antibodies because NGF is required to support survival of these neurons. For example, at saturating concentrations of NGF, the survival is close to 100% by 48 hours in culture. By contrast, less than 5% of the neurons survive by 48 hours in absence of NGF.\nThe survival assay was conducted as follows: time-mated pregnant Swiss Webster female mice were euthanized by CO2 inhalation. The uterine horns were removed and the embryos at embryonic stage E13.5 were extracted and decapitated. The trigeminal ganglia were dissected using electrolytically sharpened tungsten needles. The ganglia were then trypsinized, mechanically dissociated and plated at a density of 200-300 cells per well in defined, serum-free medium in 96-well plates coated with poly-L-ornithine and laminin.\nAfter 48 hours in culture, the cells were subjected to an automated immunocytochemistry protocol performed on a Biomek FX liquid handling workstation (Beckman Coulter) as follows: fixation using 4% formaldehyde, 5% sucrose, and PBS; permeabilization using 0.3% Triton X-100 in PBS); blocking of unspecific binding sites using 5% normal goat serum, 0.11% BSA in PBS; and sequential incubation with a primary and secondary antibodies to detect neurons. The primary antibody was rabbit polyclonal antibody against the protein gene product […] (PGP9.5, Chemicon), an established neuronal phenotypic marker. The secondary antibody was Alexa Fluor 488 goat anti-rabbit (Molecular Probes), together with the nuclear dye Hoechst 33342 (Molecular Probes) to label the nuclei of all the cells present in the culture. […]"}, "[1]": {"tested_on": "adjuvant-induced arthritis", "experiment": "Dose response of E3 on vocalization intensity in arthritic rats (Example 9)", "type": "in vivo, rat", "experimental": "The ability of E3 to produce reduction in pain in arthritic rats was further investigated by examining the dose response relationship between E3 administration and pain reduction. Rats were treated with adjuvant to induce arthritis as described above. Ten rats not injected with adjuvant were used as non-arthritic controls. Fourteen days after adjuvant injection, animals were qualified into the study based on the criteria stated above, randomized into eight groups of ten rats and tested for the intensity of their vocalization response. They were then dosed on day 14 with saline, or 0.003 mg/kg, 0.01 mg/kg, 0.03 mg/kg, 0.1 mg/kg, 0.3 mg/kg, 1 mg/kg or 5 mg/kg of E3 antibody as described above. Animals were tested for their vocalization response on days 16, 18, 20, and 24. Animals were redosed with saline or the same dose of E3 on day 18 after the vocalization testing. Animals were also weighed each day, starting at day 14. Thus, animals were dosed twice with a given dose of antibody or saline on days 14 and 18, and assessed for pain five times, on days 14, 16, 18, 20 and 24. Data are shown in Tables 20-22 and in FIGS. 20-22. The effect of treating animals with various doses of anti-NGF antibody E3 on pain induced vocalization (data shown in Table 20) was statistically analyzed by using two-way ANOVA to compare the results obtained pairwise between arthritic animals treated with vehicle with those treated with a given dose of antibody E3. […] Even at the lowest dose tested (0.003 mg/kg of E3), the difference in vocalization was significant (p<0.0001)."}}}
{"molecule": "B1", "values": [{"measurement": "inhibition of NGF-dependent survival compared with antibody 911 and trkA immunoadhesin", "setting": "human NGF", "value": "blocked NGF significantly better than either mouse monoclonal anti-NGF antibody 911 or the trkA immunoadhesin"}, {"measurement": "effect on pain induced vocalization vs vehicle (two-way ANOVA)", "setting": "[1]; 0.003 to 5 mg/kg, p<0.0001", "value": "highly significant effect at all levels of E3 tested"}, {"measurement": "Vocalization intensity", "setting": "[1]; E3 0.003 mg/kg on days 14+18, day 14", "value": 981.75, "unit": "mV"}, {"measurement": "Vocalization intensity", "setting": "[1]; E3 0.003 mg/kg on days 14+18, day 16", "value": 825.60, "unit": "mV"}, {"measurement": "Vocalization intensity", "setting": "[1]; E3 0.003 mg/kg on days 14+18, day 18", "value": 427.43, "unit": "mV"}, {"measurement": "Vocalization intensity", "setting": "[1]; E3 0.003 mg/kg on days 14+18, day 20", "value": 448.00, "unit": "mV"}, {"measurement": "Vocalization intensity", "setting": "[1]; E3 0.003 mg/kg on days 14+18, day 24", "value": 724.50, "unit": "mV"}, {"measurement": "Vocalization intensity", "setting": "[1]; E3 0.01 mg/kg on days 14+18, day 14", "value": 1007.28, "unit": "mV"}, {"measurement": "Vocalization intensity", "setting": "[1]; E3 0.01 mg/kg on days 14+18, day 16", "value": 576.88, "unit": "mV"}, {"measurement": "Vocalization intensity", "setting": "[1]; E3 0.01 mg/kg on days 14+18, day 18", "value": 334.45, "unit": "mV"}, {"measurement": "Vocalization intensity", "setting": "[1]; E3 0.01 mg/kg on days 14+18, day 20", "value": 313.13, "unit": "mV"}, {"measurement": "Vocalization intensity", "setting": "[1]; E3 0.01 mg/kg on days 14+18, day 24", "value": 596.38, "unit": "mV"}, {"measurement": "Vocalization intensity", "setting": "[1]; E3 0.03 mg/kg on days 14+18, day 14", "value": 963.18, "unit": "mV"}, {"measurement": "Vocalization intensity", "setting": "[1]; E3 0.03 mg/kg on days 14+18, day 16", "value": 448.43, "unit": "mV"}, {"measurement": "Vocalization intensity", "setting": "[1]; E3 0.03 mg/kg on days 14+18, day 18", "value": 292.52, "unit": "mV"}, {"measurement": "Vocalization intensity", "setting": "[1]; E3 0.03 mg/kg on days 14+18, day 20", "value": 209.48, "unit": "mV"}, {"measurement": "Vocalization intensity", "setting": "[1]; E3 0.03 mg/kg on days 14+18, day 24", "value": 513.60, "unit": "mV"}, {"measurement": "Vocalization intensity", "setting": "[1]; E3 0.1 mg/kg on days 14+18, day 14", "value": 1159.30, "unit": "mV"}, {"measurement": "Vocalization intensity", "setting": "[1]; E3 0.1 mg/kg on days 14+18, day 16", "value": 283.71, "unit": "mV"}, {"measurement": "Vocalization intensity", "setting": "[1]; E3 0.1 mg/kg on days 14+18, day 18", "value": 262.96, "unit": "mV"}, {"measurement": "Vocalization intensity", "setting": "[1]; E3 0.1 mg/kg on days 14+18, day 20", "value": 79.74, "unit": "mV"}, {"measurement": "Vocalization intensity", "setting": "[1]; E3 0.1 mg/kg on days 14+18, day 24", "value": 432.45, "unit": "mV"}, {"measurement": "Vocalization intensity", "setting": "[1]; E3 0.3 mg/kg on days 14+18, day 14", "value": 1191.58, "unit": "mV"}, {"measurement": "Vocalization intensity", "setting": "[1]; E3 0.3 mg/kg on days 14+18, day 16", "value": 151.85, "unit": "mV"}, {"measurement": "Vocalization intensity", "setting": "[1]; E3 0.3 mg/kg on days 14+18, day 18", "value": 194.19, "unit": "mV"}, {"measurement": "Vocalization intensity", "setting": "[1]; E3 0.3 mg/kg on days 14+18, day 20", "value": 66.27, "unit": "mV"}, {"measurement": "Vocalization intensity", "setting": "[1]; E3 0.3 mg/kg on days 14+18, day 24", "value": 176.32, "unit": "mV"}, {"measurement": "Vocalization intensity", "setting": "[1]; E3 1.0 mg/kg on days 14+18, day 14", "value": 1067.00, "unit": "mV"}, {"measurement": "Vocalization intensity", "setting": "[1]; E3 1.0 mg/kg on days 14+18, day 16", "value": 98.62, "unit": "mV"}, {"measurement": "Vocalization intensity", "setting": "[1]; E3 1.0 mg/kg on days 14+18, day 18", "value": 174.13, "unit": "mV"}, {"measurement": "Vocalization intensity", "setting": "[1]; E3 1.0 mg/kg on days 14+18, day 20", "value": 71.23, "unit": "mV"}, {"measurement": "Vocalization intensity", "setting": "[1]; E3 1.0 mg/kg on days 14+18, day 24", "value": 19.21, "unit": "mV"}, {"measurement": "fall of vocalization intensity", "setting": "[1]; E3 1 mg/kg, within two days (earliest time point tested)", "value": 90, "unit": "%"}, {"measurement": "Vocalization intensity", "setting": "[1]; E3 5.0 mg/kg on days 14+18, day 14", "value": 896.25, "unit": "mV"}, {"measurement": "Vocalization intensity", "setting": "[1]; E3 5.0 mg/kg on days 14+18, day 16", "value": 79.18, "unit": "mV"}, {"measurement": "Vocalization intensity", "setting": "[1]; E3 5.0 mg/kg on days 14+18, day 18", "value": 200.42, "unit": "mV"}, {"measurement": "Vocalization intensity", "setting": "[1]; E3 5.0 mg/kg on days 14+18, day 20", "value": 63.57, "unit": "mV"}, {"measurement": "Vocalization intensity", "setting": "[1]; E3 5.0 mg/kg on days 14+18, day 24", "value": 12.35, "unit": "mV"}, {"measurement": "pain relief at lowest dose", "setting": "[1]; doses as low as 0.003 mg/kg", "value": "at least partial pain relief"}]}
